In US20230049152A1 (Genentech, published 2023):
Changes are numbered by the printed parent chain.

Target: T1, human CCR8 (human, UniProt P51685 1-355)
T1 construct: the assay field says which; also called hCCR8; huCCR8
Assay: flow cytometry, CHO-huCCR8.Gna15 cells, relative to rb.Ab4
Method: Evaluation of CCR8 binding of the humanized variants with a hIgG1 Fc involved screening by flow cytometry, and comparing the relative EC₅₀ and MFI on human CCR8 CHO cells to the parental rabbit antibodies. Specifically, stable CHO-huCCR8.Gna15 cells were stained with various concentrations (starting from 10 ug/ml or 66.66 nM, 1:4 serial dilution for total 8 concentration points) of Ab4 and Ab5 variants at 4° C. for 30 minutes, then washed twice with FACS buffer (PBS with 0.5% BSA and 0.2 mM EDTA) and followed by staining with AF647-anti-hIgG at 4° C. for 15 min. Cells were washed twice with FACS buffer, and re-suspended in FACS buffer with propidium iodide (0.5 ug/ml) and analyzed with iQue3 (Sartorius).

B1: hu.Ab4.H2L1 (antibody, human IgG1, kappa)
heavy: not shown
light: DYQMTQSPSSLSASVGDRVTITCQASQSISSYLSWYQQKPGKRPKLLIYKASTLASGVPSRFSGSGSGTDFTLTISSLQPEDFATYYCQQGYTSSNIDNIFGGGTKVEIKRTVAAPSVFIFPPSDEQLKSGTASVVCLLNNFYPREAKVQWKVDNALQSGNSQESVTEQDSKDSTYSLSSTLTLSKADYEKHKVYACEVTHQGLSSPVTKSFNRGEC
- Relative EC50: 0.99 ratio
- Relative MFI: 1.07 ratio

B2: hu.Ab4.H11L1 (antibody, human IgG1, kappa, V domains shown)
VH: EVQLLESGGGLVQPGGSLRLSCAASGFSLSNYAMIWVRQAPGKGLEWVSTISLGGYTYYANWAKGRFTISRDNSKNTLYLQMNSLRAEDTAVYYCARARWSTDSAIYTYAFDPWGQGTLVTVSS
VL: DYQMTQSPSSLSASVGDRVTITCQASQSISSYLSWYQQKPGKRPKLLIYKASTLASGVPSRFSGSGSGTDFTLTISSLQPEDFATYYCQQGYTSSNIDNIFGGGTKVEIKR
- Relative EC50: 0.88 ratio
- Relative MFI: 0.66 ratio

B3: hu.Ab4.H10L1 (antibody, human IgG1, kappa)
heavy: not shown
light: B1 light
- Relative EC50: 1.07 ratio
- Relative MFI: 0.77 ratio

B4: hu.Ab4.H9L1 (antibody, human IgG1, kappa, V domains shown)
VH: B2 VH with V2Q, A24V, S49G, R71K, N73S, N76T, L78V, Q116P
VL: B2 VL
- Relative EC50: 1.04 ratio
- Relative MFI: 0.87 ratio

B5: hu.Ab4.H5L1 (antibody, human IgG1, kappa, V domains shown)
VH: B2 VH with V2Q, A24V, S49G, N73S, N76T, L78V, Y94F, Q116P
VL: B2 VL
- Relative EC50: 1.02 ratio
- Relative MFI: 0.9 ratio

B6: hu.Ab4.H6L1 (antibody, human IgG1, kappa, V domains shown)
VH: B2 VH with V2Q, A24V, S49G, R71K, N76T, L78V, Y94F, Q116P
VL: B2 VL
- Relative EC50: 1.06 ratio
- Relative MFI: 0.68 ratio

B7: hu.Ab4.H3L1 (antibody, human IgG1, kappa, V domains shown)
VH: B2 VH with V2Q, S49G, R71K, N73S, N76T, L78V, Y94F, Q116P
VL: B2 VL
- Relative EC50: 1 ratio
- Relative MFI: 1.02 ratio

B8: hu.Ab4.H7L1 (antibody, human IgG1, kappa, V domains shown)
VH: B2 VH with V2Q, A24V, S49G, R71K, N73S, L78V, Y94F, Q116P
VL: B2 VL
- Relative EC50: 1.05 ratio
- Relative MFI: 0.44 ratio

B9: hu.Ab4.H8L1 (antibody, human IgG1, kappa, V domains shown)
VH: B2 VH with V2Q, A24V, S49G, R71K, N73S, N76T, Y94F, Q116P
VL: B2 VL
- Relative EC50: 1.03 ratio
- Relative MFI: 0.72 ratio

B10: hu.Ab4.H4L1 (antibody, human IgG1, kappa, V domains shown)
VH: B2 VH with V2Q, A24V, R71K, N73S, N76T, L78V, Y94F, Q116P
VL: B2 VL
- Relative EC50: 0.96 ratio
- Relative MFI: 1.06 ratio
